Consider two substances from patent publication US20170342169A1.

pKd: −log10 of the molar value.

Test [1] deals with mouse 4-1BB (mouse) (UniProt P20334). The test is described as follows: SPR. On the technique in general: Surface plasmon resonance follows binding to a sensor surface in real time, without labels.
Test [2] addresses human mesothelin on cells (SN12C, OVCAR3, SW1990 endogenous; HEK293 transfectants) (human) (UniProt Q13421). The test is described as follows: FACS, OVCAR3 cells (CA125+).
For test [3] the target is unchanged. Briefly: FACS, SN12C cells (CA125-). (In general: In flow cytometry, cells or beads pass a laser one at a time.)

Chain of mouse 4-1BB (mouse) (P20334 24-187): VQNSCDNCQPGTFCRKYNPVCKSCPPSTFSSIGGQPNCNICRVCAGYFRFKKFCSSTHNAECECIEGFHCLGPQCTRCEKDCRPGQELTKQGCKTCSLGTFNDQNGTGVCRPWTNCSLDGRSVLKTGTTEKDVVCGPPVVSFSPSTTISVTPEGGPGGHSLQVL
Chain of human mesothelin on cells (SN12C, OVCAR3, SW1990 endogenous; HEK293 transfectants) (human) (Q13421 other isoform, or with tags, fused parts or gaps limits assumed): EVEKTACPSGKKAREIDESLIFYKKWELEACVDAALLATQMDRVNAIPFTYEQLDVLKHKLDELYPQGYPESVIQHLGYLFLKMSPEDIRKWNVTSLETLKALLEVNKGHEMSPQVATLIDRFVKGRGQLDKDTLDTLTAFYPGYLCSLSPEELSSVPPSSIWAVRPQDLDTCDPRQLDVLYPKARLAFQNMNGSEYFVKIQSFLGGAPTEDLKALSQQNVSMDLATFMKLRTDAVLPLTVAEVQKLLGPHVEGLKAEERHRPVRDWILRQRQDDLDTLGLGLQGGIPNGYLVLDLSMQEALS

1D8 (antibody): in test [1], the pKd (in general, −log10 of the Kd, conventionally taken in molar units) is 8.41; the koff (commonly the rate constant with which the complex falls apart) amounted to 0.008 s⁻¹; the kon (usually a measure of how fast the partners come together) came out at 2.1e+06 M⁻¹ s⁻¹.
On to HuIgG1 control (antibody), for which the figures for the Maximum binding (MFI) in test [2] and in test [3] were 70 MFI and 40 MFI, respectively.
